System: MexT-(His)6 (Pseudomonas poae PMA22)
Test: EMSA
Conditions: 10 mM MgCl2, 5.4-134.5 ng MexT, 1 nM probe, EMSA: 20 mM Tris-HCl pH 8, 150 mM KCl, 10 mM MgCl2, 10% glycerol, 2 mM beta-mercaptoethanol, 50 ug/mL BSA, 9 uL, 20 min room temperature, 5% PAGE in 0.5x TBE

Substance: Pa promoter probe
- binding signal (scale: fold of Pi affinity): 0.33

Substance: Pi promoter probe
- binding signal (fold higher affinity than Pa probe): 3

From paper PMC11432991
